This is an account of results in publication PMC4484809.

Assay [1] has as its target Xpo1 (full-length, 1–1071) (S. cerevisiae) (UniProt P30822).
Assay [2] has the same target. This is another data set of the same source.
For assay [3] the target is unchanged. This is another data set of the same source.

Bounds are passed on as bounds.

“Ded1 (full-length, 1–604) (from UniProt P06634 1-604) (natural protein)”: in assay [1], the RNA-stimulated ATPase activity of Ded1 (500 nM, 320 μg/mL whole-cell yeast RNA) with Xpo1 0.55–11 μM and Ran[GTP]Q71L 0.65–13 μM added together; fold reduction is 2 fold. This substance showed an RNA duplex unwinding (helicase) by Ded1 (50 nM) with Xpo1 (550 nM) and Ran[GTP]Q71L (650 nM); fold inhibition of k unwind in assay [2] of 5 fold. Besides, in assay [3], the Michaelis-Menten analysis of Ded1 ATPase (500 nM) against whole cell yeast RNA, with ~10 fold molar excess of Xpo1 and Ran[GTP]Q71L; fold change of the apparent KM for RNA was determined as 50 fold.
Substance “Ded1_(I13A) (full-length Ded1, I13A) (from UniProt P06634 1-604) (natural protein)” registered an RNA duplex unwinding (helicase) by Ded1 I13A (50 nM) with Xpo1 (550 nM) and Ran[GTP]Q71L (650 nM); fold inhibition of k unwind in assay [2] of under 2 fold.
